Experimental data: publication PMC4916044

Molecular target: endogenous NFκB2 p100 (mouse (endogenous in NFκB2+/+ MEFs)) (UniProt Q9WTK5)
Test: immunodepletion

Chain of UniProt Q9WTK5 (Q9WTK5 whole entry): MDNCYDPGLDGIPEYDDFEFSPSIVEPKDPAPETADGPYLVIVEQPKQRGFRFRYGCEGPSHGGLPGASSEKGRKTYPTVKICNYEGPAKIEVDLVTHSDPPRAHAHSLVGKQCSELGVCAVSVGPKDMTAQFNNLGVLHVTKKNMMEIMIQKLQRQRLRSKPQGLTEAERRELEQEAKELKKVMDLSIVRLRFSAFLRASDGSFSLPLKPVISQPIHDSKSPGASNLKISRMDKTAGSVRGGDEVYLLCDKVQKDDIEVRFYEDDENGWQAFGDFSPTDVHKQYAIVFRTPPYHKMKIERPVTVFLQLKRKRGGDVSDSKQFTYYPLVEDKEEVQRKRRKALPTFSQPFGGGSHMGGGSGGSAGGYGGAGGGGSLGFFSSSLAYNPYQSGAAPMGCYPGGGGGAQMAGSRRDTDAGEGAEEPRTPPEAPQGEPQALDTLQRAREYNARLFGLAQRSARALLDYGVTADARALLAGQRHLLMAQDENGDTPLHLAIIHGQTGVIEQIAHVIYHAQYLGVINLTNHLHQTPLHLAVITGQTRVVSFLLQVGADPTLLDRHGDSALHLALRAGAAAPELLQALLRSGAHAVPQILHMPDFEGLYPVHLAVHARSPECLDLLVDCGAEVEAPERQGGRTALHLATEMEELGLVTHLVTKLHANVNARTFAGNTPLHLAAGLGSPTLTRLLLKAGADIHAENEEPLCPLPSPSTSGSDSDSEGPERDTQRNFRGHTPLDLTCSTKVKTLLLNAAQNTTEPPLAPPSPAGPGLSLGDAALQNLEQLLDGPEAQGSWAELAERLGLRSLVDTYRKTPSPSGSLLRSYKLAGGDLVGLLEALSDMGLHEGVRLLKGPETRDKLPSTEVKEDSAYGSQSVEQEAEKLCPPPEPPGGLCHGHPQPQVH

“endogenous ERK2 (from UniProt P63085 1-358) (natural protein)” was tested. Which percent of endogenous ERK2 pulled down with p100 (immunodepletion) did it give?
Its percent of endogenous ERK2 pulled down with p100 (immunodepletion) is 46%.
